Results published in patent US10813913B2, “Small molecules that mimic or antagonize actions of granulocyte colony-stimulating-factor (G-CSF)” (UNIVERSITY OF SOUTH FLORIDA, priority 2016, dated 2020).
Entries after “also recorded” stand apart in the source; their conditions may differ.

Columns and labels:
[1] = system: PKCδVIII and Bcl2 expressed in SH-SY5Y neuronal cells; experiment: Western blot of PKCδVIII and Bcl2 in SH-SY5Y neuronal cells; type: cell-based, human; conditions: SH-SY5Y, G-CSF 100 ng/mL (5.3 nM), 24 h
Protocol: (§1) THP-1 cells or SH-SY5Y cells 3×10^6 cells in 5 mL media in a 25 cm^2 flask were treated with 100 ng/mL G-CSF or three different concentrations of the test drug for 24 h. In addition, a set of flasks were co-incubated with the combination of G-CSF and 3 concentrations of test drug. Whole cell lysates ([…]) were separated on 10% polyacrylamide gel electrophoresis-SDS (PAGE-SDS). Proteins were electrophoretically transferred to nitrocellulose membranes, blocked with 5% nonfat milk prepared on Tris buffered saline containing 0.1% Tween 20, washed and incubated with a polyclonal antibody against either Bcl2 (Cell Signaling, Danvers, Mass.) or PKCδVIII-specific polyclonal antibody (Jiang, K., et al. Biochemistry 2008, 47, 787-797). The house keeping gene GAPDH was used as an internal standard. Following incubation with anti-rabbit IgG-HRP, enhanced chemiluminesence (Pierce™, Thermo Scientific, Walthahm, Mass.) was used for detection and the gels were analyzed using UN-SCAN-IT™ software (Silk Scientific, Inc., Orem, Utah).
(§2) Statistical analysis. Densitometric results from Western blots were analyzed with two-tailed t-tests when only two groups were compared. In other analyses where 3 groups were compared, one-way ANOVA followed by t-tests with Dunnett's corrections for multiple comparisons was utilized. All data was presented as mean±SEM. All statistical analysis of data was done via PRISM4 or PRISM5 statistical analysis software (GraphPad Prism, La Jolla, Calif.). Neurohistologic analyses are performed using ANOVA. All comparisons were considered significant at level of P<0.05.

[2] = system: PKCδVIII and Bcl2 expressed in THP-1 monocytic cells; experiment: Western blot of PKCδVIII and Bcl2 in THP-1 monocytic cells; type: cell-based, human; conditions: THP-1, G-CSF 200 ng/mL (10.6 nM), 24 h
Protocol: as §1, with “In” for “THP-1 cells or SH-SY5Y cells 3×10^6 cells in 5 mL media in a 25 cm^2 flask were treated with 100 ng/mL G-CSF or three different concentrations of the test drug for 24 h. In”
as §2

[3] = system: mouse model of TBI; conditions: earlier G-CSF work stated as background to Example 6; cited from earlier work

B1: G-CSF: Granulocyte-colony stimulating factor, a glycoprotein cytokine; natural ligand of G-CSF-R; SEQ ID NO: 1 (protein, listed as Homo sapiens)
chain: MAGPATQSPMKLMALQLLLWHSALWTVQEATPLGPASSLPQSFLLKCLEQVRKIQGDGAALQEKLVSECATYKLCHPEELVLLGHSLGIPWAPLSSCPSQALQLAGCLSQLHSGLFLYQGLLQALEGISPELGPTLDTLQLDVADFATTIWQQMEELGMAPALQPTQGAMPAFASAFQRRAGGVLVASHLQSFLEVSYRVLRHLAQP
- Bcl2 expression [1]: much greater at equivalent concentrations; also recorded: increased
- PKCδVIII expression [1]: much greater at equivalent concentrations; also recorded: increased
- Bcl2 expression [2]: increased the expression of PKCδVIII and Bcl2
- PKCδVIII expression [2]: increased the expression of PKCδVIII and Bcl2
- recovery in the radial arm water maze (RAWM) [3]: significantly promoted recovery
